According to article PMC2120792:

Assays:
[1] = molecular target: SyPg(234), synaptophysin-plakoglobin chimera truncated after plakoglobin residue 234 (rat | human) (UniProt P07825); assay: co-IP
[2] = molecular target: SyPg(580), synaptophysin-plakoglobin chimera truncated after plakoglobin residue 580 (rat | human) (UniProt P07825); assay: co-IP
[3] = molecular target: recombinant human plakoglobin, complete (pQPg) (human) (UniProt P14923); assay: ELISA
UniProt P14923, sequence (P14923 whole entry): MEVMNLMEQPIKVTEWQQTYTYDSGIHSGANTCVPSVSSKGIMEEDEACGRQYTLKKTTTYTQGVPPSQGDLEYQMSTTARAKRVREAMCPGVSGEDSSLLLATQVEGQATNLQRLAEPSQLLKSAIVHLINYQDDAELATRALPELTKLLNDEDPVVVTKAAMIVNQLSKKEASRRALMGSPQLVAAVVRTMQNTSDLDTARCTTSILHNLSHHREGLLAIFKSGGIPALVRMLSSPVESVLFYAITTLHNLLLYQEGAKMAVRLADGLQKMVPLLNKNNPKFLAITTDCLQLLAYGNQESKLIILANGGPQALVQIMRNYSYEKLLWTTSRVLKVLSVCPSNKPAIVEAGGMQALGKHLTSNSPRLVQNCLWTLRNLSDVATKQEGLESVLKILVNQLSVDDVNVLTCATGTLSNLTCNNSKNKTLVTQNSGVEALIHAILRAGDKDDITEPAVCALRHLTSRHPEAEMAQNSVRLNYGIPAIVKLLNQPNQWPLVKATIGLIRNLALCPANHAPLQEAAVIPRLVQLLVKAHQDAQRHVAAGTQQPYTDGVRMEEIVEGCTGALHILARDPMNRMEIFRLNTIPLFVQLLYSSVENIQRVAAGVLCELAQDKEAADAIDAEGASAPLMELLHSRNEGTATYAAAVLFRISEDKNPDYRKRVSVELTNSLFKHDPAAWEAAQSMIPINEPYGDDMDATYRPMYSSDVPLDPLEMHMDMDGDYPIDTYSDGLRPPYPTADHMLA

Row | Dsg coprecipitated relative to SyPg (fraction of that with SyPg) [1] | Dsg coprecipitated relative to SyPg (fraction of that with SyPg) [2] | fold weaker binding than HCDg [3] [fold] | Substance
1 | < 0.33 | < 0.33 | – | endogenous desmoglein (Dsg) (from UniProt Q14126 50-1118) (natural protein)
2 | – | – | 2 | HCDc, his-tagged cadherin tail with the IA subdomain and C-domain of bovine Dsc1 (domain or fragment)
3 | – | – | 5 | HCUv, his-tagged cadherin tail with the IA subdomain of bovine Dsc1 and the C-subdomain of murine E-cadherin
